Measurements published in publication PMC8311663 (Molecular cell, 2021).

T1: Mycobacterium tuberculosis RNA polymerase β subunit (M. tuberculosis, UniProt P9WGY9 1-1178)
T1 sequence: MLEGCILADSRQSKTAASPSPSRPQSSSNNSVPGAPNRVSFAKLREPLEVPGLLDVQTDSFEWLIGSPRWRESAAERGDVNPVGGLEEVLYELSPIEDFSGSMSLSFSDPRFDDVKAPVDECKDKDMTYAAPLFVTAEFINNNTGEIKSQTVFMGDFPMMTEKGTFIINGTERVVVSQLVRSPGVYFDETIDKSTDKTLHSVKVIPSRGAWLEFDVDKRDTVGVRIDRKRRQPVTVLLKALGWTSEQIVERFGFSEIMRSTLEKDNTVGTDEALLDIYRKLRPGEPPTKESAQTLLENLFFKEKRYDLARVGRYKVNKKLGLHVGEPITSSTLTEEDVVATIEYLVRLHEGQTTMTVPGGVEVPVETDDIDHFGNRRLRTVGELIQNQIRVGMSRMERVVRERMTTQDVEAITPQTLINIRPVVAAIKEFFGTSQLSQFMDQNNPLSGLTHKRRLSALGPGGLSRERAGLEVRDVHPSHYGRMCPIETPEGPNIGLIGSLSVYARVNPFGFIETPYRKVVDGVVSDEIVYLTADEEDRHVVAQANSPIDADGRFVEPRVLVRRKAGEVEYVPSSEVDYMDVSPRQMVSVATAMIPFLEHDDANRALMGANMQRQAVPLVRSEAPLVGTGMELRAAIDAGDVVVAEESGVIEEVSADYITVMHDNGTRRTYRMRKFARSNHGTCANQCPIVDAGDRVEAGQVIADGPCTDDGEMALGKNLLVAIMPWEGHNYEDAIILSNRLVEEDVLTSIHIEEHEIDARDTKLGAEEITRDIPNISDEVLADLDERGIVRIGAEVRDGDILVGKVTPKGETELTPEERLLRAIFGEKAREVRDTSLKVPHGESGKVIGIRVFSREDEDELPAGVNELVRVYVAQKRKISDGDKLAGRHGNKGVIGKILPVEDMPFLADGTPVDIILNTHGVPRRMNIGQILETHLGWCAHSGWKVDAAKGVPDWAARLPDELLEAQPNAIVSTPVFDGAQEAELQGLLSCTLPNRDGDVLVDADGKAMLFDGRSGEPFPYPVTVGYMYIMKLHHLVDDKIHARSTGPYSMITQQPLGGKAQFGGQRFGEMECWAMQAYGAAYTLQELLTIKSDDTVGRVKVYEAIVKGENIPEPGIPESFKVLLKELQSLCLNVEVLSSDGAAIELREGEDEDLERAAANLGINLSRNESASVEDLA

T2: Mycobacterium tuberculosis σ^A (co-expressed with RbpA) (M. tuberculosis, UniProt P9WGI1)
T2 sequence: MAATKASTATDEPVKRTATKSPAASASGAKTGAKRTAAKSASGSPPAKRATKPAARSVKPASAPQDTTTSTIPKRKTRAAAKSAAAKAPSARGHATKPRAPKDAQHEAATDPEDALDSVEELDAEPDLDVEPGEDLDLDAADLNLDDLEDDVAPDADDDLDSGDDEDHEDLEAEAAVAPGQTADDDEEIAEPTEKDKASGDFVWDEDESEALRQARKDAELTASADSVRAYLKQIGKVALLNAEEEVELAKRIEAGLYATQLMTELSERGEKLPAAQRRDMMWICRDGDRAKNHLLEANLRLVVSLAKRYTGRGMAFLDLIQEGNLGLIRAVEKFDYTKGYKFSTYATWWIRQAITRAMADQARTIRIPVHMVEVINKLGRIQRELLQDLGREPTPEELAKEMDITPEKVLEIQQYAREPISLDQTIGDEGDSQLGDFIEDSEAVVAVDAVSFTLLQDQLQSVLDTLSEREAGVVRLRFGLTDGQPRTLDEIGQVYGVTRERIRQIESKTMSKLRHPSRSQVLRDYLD

B1: Mycobacterium tuberculosis CarD (natural protein)
chain: MIFKVGDTVVYPHHGAALVEAIETRTIKGEQKEYLVLKVAQGDLTVRVPAENAEYVGVRDVVGQEGLDKVFQVLRAPHTEEPTNWSRRYKANLEKLASGDVNKVAEVVRDLWRRDQERGLSAGEKRMLAKARQILVGELALAESTDDAKAETILDEVLAAAS
B2: Mycobacterium tuberculosis RbpA (co-expressed with σ^A) (natural protein)
chain: MADRVLRGSRLGAVSYETDRNHDLAPRQIARYRTDNGEEFEVPFADDAEIPGTWLCRNGMEGTLIEGDLPEPKKVKPPRTHWDMLLERRSIEELEELLKERLELIRSRRRG
B3: Mycobacterium tuberculosis RbpA (expressed alone from pET20b) (natural protein)
chain: B2 chain
B4: Mycobacterium tuberculosis WhiB7 (6His-WhiB7) (natural protein)
chain: MSVLTVPRQTPRQRLPVLPCHVGDPDLWFADTPAGLEVAKTLCVSCPIRRQCLAAALQRAEPWGVWGGEIFDQGSIVSHKRPRGRPRKDAVA
B5: Mycobacterium tuberculosis σ^A (Strep-tag II-σ^A, co-expressed with WhiB7) (natural protein)
chain: AATKASTATDEPVKRTATKSPAASASGAKTGAKRTAAKSASGSPPAKRATKPAARSVKPASAPQDTTTSTIPKRKTRAAAKSAAAKAPSARGHATKPRAPKDAQHEAATDPEDALDSVEELDAEPDLDVEPGEDLDLDAADLNLDDLEDDVAPDADDDLDSGDDEDHEDLEAEAAVAPGQTADDDEEIAEPTEKDKASGDFVWDEDESEALRQARKDAELTASADSVRAYLKQIGKVALLNAEEEVELAKRIEAGLYATQLMTELSERGEKLPAAQRRDMMWICRDGDRAKNHLLEANLRLVVSLAKRYTGRGMAFLDLIQEGNLGLIRAVEKFDYTKGYKFSTYATWWIRQAITRAMADQARTIRIPVHMVEVINKLGRIQRELLQDLGREPTPEELAKEMDITPEKVLEIQQYAREPISLDQTIGDEGDSQLGDFIEDSEAVVAVDAVSFTLLQDQLQSVLDTLSEREAGVVRLRFGLTDGQPRTLDEIGQVYGVTRERIRQIESKTMSKLRHPSRSQVLRDYLD

Assays:
Experiment in all cases: cryo-EM structure
[1] = target: T1, Mycobacterium tuberculosis RNA …
[2] = target: T2, Mycobacterium tuberculosis σ^A …
[3] = target: B5
[4] = target: Mycobacterium tuberculosis RNA polymerase β’ subunit (M. tuberculosis, UniProt P9WGY7)

| Binder | binding result [1] | binding result [2] | binding result [3] | binding result [4] |
| --- | --- | --- | --- | --- |
| B1 | binds |  |  |  |
| B2 |  | binds |  |  |
| B3 |  |  | binds |  |
| B4 |  |  | binds | binds |
| B5 | binds |  |  | binds |
